Measurements reported in patent US12134635 (SONNET BIOTHERAPEUTICS, dated 2024).

B1: hIL-18 Variant A (ligand)
chain: WFGKLESKLSVIRNLNDQVLFIDQGNRPLFEDMTDSDSRDNAPRTIFIISYYKDSQPRGWAVTISVKSEKISTLSSENKIISFKEMNPPDNIKDTKSDIIFFQRSVPGHYNKMQFESSSYEGYFLASEKERDLFKLILKKEDELGDRSIMFTVQNED

How the values were obtained:
[1] = biological target: IL-18 binding protein (UniProt O95998); assay: Biacore T200 SPR, CM5 chip, IL-18BP as immobilized ligand, hIL-18 titrated, 25 C
[2] = biological target: T1, IL-18 receptor (UniProt Q13478 19-541; O95256 20-599, limits assumed); assay: cell-based or functional assay
T1 sequence (looked up) 1: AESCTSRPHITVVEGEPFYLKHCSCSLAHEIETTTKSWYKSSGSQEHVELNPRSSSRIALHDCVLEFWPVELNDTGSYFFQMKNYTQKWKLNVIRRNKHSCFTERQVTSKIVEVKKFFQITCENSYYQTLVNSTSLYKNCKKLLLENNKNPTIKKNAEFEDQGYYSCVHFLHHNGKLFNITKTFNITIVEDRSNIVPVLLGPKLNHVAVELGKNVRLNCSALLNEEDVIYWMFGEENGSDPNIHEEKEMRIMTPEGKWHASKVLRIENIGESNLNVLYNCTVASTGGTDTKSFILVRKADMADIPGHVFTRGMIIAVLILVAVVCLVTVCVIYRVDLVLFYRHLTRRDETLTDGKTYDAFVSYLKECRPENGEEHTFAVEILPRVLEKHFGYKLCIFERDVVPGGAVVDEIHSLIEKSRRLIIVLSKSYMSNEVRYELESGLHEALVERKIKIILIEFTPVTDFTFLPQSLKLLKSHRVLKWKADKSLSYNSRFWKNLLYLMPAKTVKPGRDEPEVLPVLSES
T1 sequence (looked up) 2: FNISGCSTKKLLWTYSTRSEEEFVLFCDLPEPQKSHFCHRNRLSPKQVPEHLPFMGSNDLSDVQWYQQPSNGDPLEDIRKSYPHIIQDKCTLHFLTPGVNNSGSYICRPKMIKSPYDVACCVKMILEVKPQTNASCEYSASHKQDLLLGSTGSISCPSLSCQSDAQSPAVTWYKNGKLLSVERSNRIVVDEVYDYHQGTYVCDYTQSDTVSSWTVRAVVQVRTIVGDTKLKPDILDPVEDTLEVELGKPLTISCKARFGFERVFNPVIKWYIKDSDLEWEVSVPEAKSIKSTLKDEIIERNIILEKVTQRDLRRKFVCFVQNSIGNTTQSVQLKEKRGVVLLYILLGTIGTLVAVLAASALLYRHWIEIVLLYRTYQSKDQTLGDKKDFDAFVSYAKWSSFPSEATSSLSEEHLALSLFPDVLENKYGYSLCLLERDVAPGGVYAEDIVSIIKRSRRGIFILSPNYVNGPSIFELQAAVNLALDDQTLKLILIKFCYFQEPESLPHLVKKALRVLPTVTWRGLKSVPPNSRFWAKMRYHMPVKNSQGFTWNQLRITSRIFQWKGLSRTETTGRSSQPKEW

| Kd [1] [nM] | EC50 (read off the curve), HEK-Blue IL-18 reporter, OD at 640 nM [2] [ng/mL] | Molecule |
| --- | --- | --- |
| 0.056 | – | Recombinant hIL-18 (NIBSC wildtype) (from UniProt Q14116 37-193) (ligand) |
| – | ~0.03 | B1 |
